# Source: PMC12381745
# B1: LHD101A-βit I61C-L1-RNA protein-linker-RNA conjugate (designed binder)
# chain: SELAVVAAIISAVARMGVKMELHPSGNEVKVVIKGLHIKQQRQLYRDVREAAKKAGVEVECEVEGDTVTIVVRG
# modifications: here or on the partner: cysteine 61 joined by thiol-maleimide Michael addition to linker L1, whose DBCO is joined by SPAAC to the azide-functionalised 17mer RNA conjRNA1
# B2: LHD101A-βit E60C-L1 protein-linker conjugate (designed binder)
# chain: SELAVVAAIISAVARMGVKMELHPSGNEVKVVIKGLHIKQQRQLYRDVREAAKKAGVEVCIEVEGDTVTIVVRG
# modifications: here or on the partner: cysteine 60 joined by thiol-maleimide Michael addition to linker L1 (maleimide-DBCO, shorter, more rigid)
# B3: LHD101A-βit E62C-L1-RNA protein-linker-RNA conjugate (designed binder)
# chain: SELAVVAAIISAVARMGVKMELHPSGNEVKVVIKGLHIKQQRQLYRDVREAAKKAGVEVEICVEGDTVTIVVRG
# modifications: here or on the partner: cysteine 62 joined by thiol-maleimide Michael addition to linker L1, whose DBCO is joined by SPAAC to the azide-functionalised 17mer RNA conjRNA1
# B4: LHD101A-βit I61C-L2-RNA protein-linker-RNA conjugate (designed binder)
# chain: SELAVVAAIISAVARMGVKMELHPSGNEVKVVIKGLHIKQQRQLYRDVREAAKKAGVEVECEVEGDTVTIVVRG
# modifications: here or on the partner: cysteine 61 joined by thiol-maleimide Michael addition to linker L2, whose DBCO is joined by SPAAC to the azide-functionalised 17mer RNA conjRNA1
# B5: LHD101A-βit G65C-L1-RNA protein-linker-RNA conjugate (designed binder)
# chain: SELAVVAAIISAVARMGVKMELHPSGNEVKVVIKGLHIKQQRQLYRDVREAAKKAGVEVEIEVECDTVTIVVRG
# modifications: here or on the partner: cysteine 65 joined by thiol-maleimide Michael addition to linker L1, whose DBCO is joined by SPAAC to the azide-functionalised 17mer RNA conjRNA1
# B6: LHD101A-βit E60C-L2 protein-linker conjugate (designed binder)
# chain: SELAVVAAIISAVARMGVKMELHPSGNEVKVVIKGLHIKQQRQLYRDVREAAKKAGVEVCIEVEGDTVTIVVRG
# modifications: here or on the partner: cysteine 60 joined by thiol-maleimide Michael addition to linker L2 (maleimide-DBCO, longer, more flexible)
# B7: LHD101A-βit E62C-L2-RNA protein-linker-RNA conjugate (designed binder)
# chain: SELAVVAAIISAVARMGVKMELHPSGNEVKVVIKGLHIKQQRQLYRDVREAAKKAGVEVEICVEGDTVTIVVRG
# modifications: here or on the partner: cysteine 62 joined by thiol-maleimide Michael addition to linker L2, whose DBCO is joined by SPAAC to the azide-functionalised 17mer RNA conjRNA1
# B8: LHD101A-βit G65C-L2-RNA protein-linker-RNA conjugate (designed binder)
# chain: SELAVVAAIISAVARMGVKMELHPSGNEVKVVIKGLHIKQQRQLYRDVREAAKKAGVEVEIEVECDTVTIVVRG
# modifications: here or on the partner: cysteine 65 joined by thiol-maleimide Michael addition to linker L2, whose DBCO is joined by SPAAC to the azide-functionalised 17mer RNA conjRNA1
# Tests used:
# LHD101B-αLux [1] = experiment: split reporter (BiFC, NanoBiT); time-course luminescence; protein-linker-RNA conjugate of A and protein B preincubated until a baseline signal, then RNase A added manually after 30 min; S/B = maximum signal after RNA cleavage divided by the baseline signal
# LHD101B-αLux [2] = experiment: split reporter (BiFC, NanoBiT); protein-linker conjugates of protein A with protein B in solution; luminescence relative to the naked cysteine mutant (Figure 2c)
# LHD101B-αLux [3] = experiment: split reporter (BiFC, NanoBiT); 96-well plate; 2.5 nM BC10 and 2.5 nM B protein with preincubated 100 nM Cas13 and 50 nM crRNA1 in 1x HBS-EP+ buffer, 50 μM LuxSit Pro Substrate; target RNA added after 5 min of baseline; 1 h at room temperature
binder,measurement,setting,value
B1,S/B change (maximum signal after RNA cleavage by RNase A divided by the baseline signal with intact RNA),LHD101B-αLux [1],> 1.3
B2,luminescence signal relative to the naked cysteine mutant,LHD101B-αLux [2],> 20%
B3,S/B change (maximum signal after RNA cleavage by RNase A divided by the baseline signal with intact RNA),LHD101B-αLux [1],2
same,maximum luminescence signal after RNA cleavage by RNase A,LHD101B-αLux [1],100000 RLU
same,maximum S/B ratio (signal after RNA cleavage by activated Cas13 divided by the baseline signal with intact RNA),LHD101B-αLux [3],1.6
B4,S/B change (maximum signal after RNA cleavage by RNase A divided by the baseline signal with intact RNA),LHD101B-αLux [1],> 1.3
B5,S/B change (maximum signal after RNA cleavage by RNase A divided by the baseline signal with intact RNA),LHD101B-αLux [1],> 1.3
B6,luminescence signal relative to the naked cysteine mutant,LHD101B-αLux [2],> 20%
B7,S/B change (maximum signal after RNA cleavage by RNase A divided by the baseline signal with intact RNA),LHD101B-αLux [1],1.89
B8,S/B change (maximum signal after RNA cleavage by RNase A divided by the baseline signal with intact RNA),LHD101B-αLux [1],> 1.3
